biological target: T1, biotin-labelled EZH2 protein (UniProt Q15910 1-746, limits assumed, biotin label (EZ-link NHS-PEO4-Biotinylation kit)); test: KDM2B peptide array probed with biotin-EZH2 1 ug/ml, SA-HRP/ECL;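 note: Background-corrected optical density of each spot on the membrane, given as percent of the brightest spot (100%), color developed for 5 minutes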
T1 construct: Probe in solution (1 ug/ml) on the KDM2B peptide microarray; also called NHS-PEO4-Biotinylation-labelled EZH2 protein; recombinant protein
T1 sequence (Q15910 whole entry): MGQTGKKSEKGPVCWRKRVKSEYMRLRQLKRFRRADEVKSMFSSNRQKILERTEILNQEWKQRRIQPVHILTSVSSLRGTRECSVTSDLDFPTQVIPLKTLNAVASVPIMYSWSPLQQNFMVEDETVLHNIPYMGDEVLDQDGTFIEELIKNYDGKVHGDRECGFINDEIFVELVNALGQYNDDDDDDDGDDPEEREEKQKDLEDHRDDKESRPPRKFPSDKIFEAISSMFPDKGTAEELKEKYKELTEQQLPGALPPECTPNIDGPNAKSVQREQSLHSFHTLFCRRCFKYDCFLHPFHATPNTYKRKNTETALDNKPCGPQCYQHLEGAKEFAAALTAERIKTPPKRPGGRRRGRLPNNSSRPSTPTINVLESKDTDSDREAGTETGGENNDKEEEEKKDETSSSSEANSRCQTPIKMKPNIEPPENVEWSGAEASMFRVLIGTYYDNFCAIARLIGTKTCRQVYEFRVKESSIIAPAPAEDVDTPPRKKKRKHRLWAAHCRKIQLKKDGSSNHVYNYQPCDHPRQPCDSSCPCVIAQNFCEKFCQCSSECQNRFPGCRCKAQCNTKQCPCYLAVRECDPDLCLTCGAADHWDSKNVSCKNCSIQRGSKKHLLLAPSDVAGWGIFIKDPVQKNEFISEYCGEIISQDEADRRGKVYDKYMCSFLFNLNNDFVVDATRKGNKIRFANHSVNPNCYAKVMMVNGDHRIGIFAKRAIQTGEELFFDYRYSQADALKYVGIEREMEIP
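Note: 100% is the highest background-corrected spot optical density on the membrane.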

Row | Binder | Intensity (%)
1 | RTLSNESEESVKSTT [peptide 95] | 0%
2 | IDAPRKPSIDGFSSD [peptide 79] | 1.13%
3 | PKAPALRFLKRTLSN [peptide 93] | 0%
4 | GFSSDSWLEMEEEAC [peptide 81] | 7.19%
5 | YPFYYEMCWYVLERY [peptide 72] | 0.04%
6 | SWLEMEEEACDQQPQ [peptide 82] | 0%
7 | VKSTTLAVDYPKTPT [peptide 97] | 0%
8 | TQRPIDRQRYDENED [peptide 9] | 0%
9 | QRSHLTQEYQRESML [peptide 76] | 0%
10 | DEEGEGRDRAPKPPT [peptide 86] | 0.03%
11 | VYCVTQRSHLTQEYQ [peptide 75] | 0%
12 | EEEEKDEEGEGRDRA [peptide 85] | 0%
13 | RESMLIDAPRKPSID [peptide 78] | 1.74%
14 | PKPPTDGSTSPTSTP [peptide 88] | 0%
15 | GRDRAPKPPTDGSTS [peptide 87] | 0%
16 | LRFLKRTLSNESEES [peptide 94] | 0%
17 | KPSIDGFSSDSWLEM [peptide 80] | 6.61%

biological target: T1, biotin-labelled EZH2 protein; test: KDM2B peptide array probed with biotin-EZH2 1 ug/ml, SA-HRP/ECL; Remark: noise
Description: After blocking, the polypeptide microarray was incubated with biotin-labeled target protein for hybridization, visualized with the chemical chromogenic substrate and imaged using a Chempchemi digital imager. The image of colored polypeptide microarray was analyzed for the optical density of the colored points. Particularly, the optical density of each colored point was calculated using the optical density of the respective surrounding background as a reference for background correction. The highest optical density value of the colored point on membrane was set to 100%, and the optical density value of the remaining colored points was converted into percentages relative to the highest value. The points with an optical density percentage of more than 30% on the polypeptide membrane and also with an optical density percentage of less than 30% on the negative membrane were defined as positive colored points.
For the hybridization experiment, a solution of NHS-PEO4-Biotinylation-labelled EZH2 protein (1 μg/ml) was used for the hybridization of the polypeptide microarray. Streptavidin-HRP was used to amplify the reaction signal according to the experimental procedure and conditions described above, and the time of color development was 5 minutes.

Row | Binder | Intensity (%)
18 | RGFSLEEKLRSQLYQ [peptide 14] | 0.07%
19 | LQTSPGSSSHLSPRP [peptide 165] | 0%
20 | KDMKKFGGPGRMKQS [peptide 127] | 0%
21 | AMEGKDFNYEYVQRE [peptide 18] | 0%
22 | EIVSVRGFSLEEKLR [peptide 13] | 0.05%
23 | EEAPRRRSDEHSKKV [peptide 155] | 0%
24 | KRASSLQTSPGSSSH [peptide 164] | 0.34%
25 | GKTGKQKRGPGFKYA [peptide 146] | 0.01%
26 | KCNHAGKTGKQKRGP [peptide 145] | 0%
27 | ELSGRKRASSLQTSP [peptide 163] | 0%
28 | ESDHSRSSSPTAGPS [peptide 182] | 0.36%
29 | PPKTRESDHSRSSSP [peptide 181] | 0.3%
